The values below come from paper doi:10.1101/2021.05.25.445566 (bioRxiv, 2021).

Positions count from the first letter of the chain named. In names and notes the source's numbering stands.

The chains are these.
T1: MlaF K47A (Walker A variant) (UniProt P63386 1-269, K47A)
T1 sequence: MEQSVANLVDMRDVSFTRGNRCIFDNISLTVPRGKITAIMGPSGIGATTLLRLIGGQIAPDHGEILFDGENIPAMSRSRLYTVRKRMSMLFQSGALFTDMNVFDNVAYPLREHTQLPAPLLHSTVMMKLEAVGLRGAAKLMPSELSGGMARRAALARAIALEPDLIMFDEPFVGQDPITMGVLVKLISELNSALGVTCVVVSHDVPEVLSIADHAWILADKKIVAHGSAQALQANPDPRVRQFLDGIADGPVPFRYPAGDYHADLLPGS

T2: MlaF, nucleotide binding domain of the MlaFEDB ABC transporter (UniProt P63386 1-269)
T2 sequence: T1 sequence with A47K

B1: MlaE, His-tagged (His-E), permease of the MlaFEDB ABC transporter (natural protein)
chain: MLLNALASLGHKGIKTLRTFGRAGLMLFNALVGKPEFRKHAPLLVRQLYNVGVLSMLIIVVSGVFIGMVLGLQGYLVLTTYSAETSLGMLVALSLLRELGPVVAALLFAGRAGSALTAEIGLMRATEQLSSMEMMAVDPLRRVISPRFWAGVISLPLLTVIFVAVGIWGGSLVGVSWKGIDSGFFWSAMQNAVDWRMDLVNCLIKSVVFAITVTWISLFNGYDAIPTSAGISRATTRTVVHSSLAVLGLDFVLTALMFGN
B2: MlaD Δ141-183 (natural protein)
chain: MQTKKNEIWVGIFLLAALLAALFVCLKAANVTSIRTEPTYTLYATFDNIGGLKARSPVSIGGVVVGRVADITLDPKTYLPRVTLEIEQRYNHIPDTSSLSIRTSGLLGEQYLALNVGFEDPELGTAILKDGDTIQDTKSA
B3: MlaD, substrate-binding MCE-domain protein of the MlaFEDB complex (natural protein)
chain: MQTKKNEIWVGIFLLAALLAALFVCLKAANVTSIRTEPTYTLYATFDNIGGLKARSPVSIGGVVVGRVADITLDPKTYLPRVTLEIEQRYNHIPDTSSLSIRTSGLLGEQYLALNVGFEDPELGTAILKDGDTIQDTKSAMVLEDLIGQFLYGSKGDDNKNSGDAPAAAPGNNETTEPVGTTK
B4: MlaD L106N/L107N (natural protein)
chain: B3 chain with L106N, L107N
B5: MlaB, cytoplasmic STAS-domain protein of the MlaFEDB complex (natural protein)
chain: MSESLSWMQTGDTLALSGELDQDVLLPLWEMREEAVKGITCIDLSRVSRVDTGGLALLLHLIDLAKKQGNNVTLQGVNDKVYTLAKLYNLPADVLPR
B6: MlaB T52A (natural protein)
chain: B5 chain with T52A

In series [1] the target is T1, MlaF K47A (Walker A variant). In words: SEC. On the technique in general: In gel filtration, larger molecules generally elute earlier.
In series [2] the target is T2, MlaF, nucleotide binding domain of the …. The experiment in a line: SEC.
The target of series [3] is B1. In words: SEC.
Series [4] deals with the molecule itself. In words: SDS-PAGE of SDS-resistant oligomers.

With B1, the binding result in series [1] and in series [2] was “binds” throughout. By stoichiometry N is commonly meant a count of units in the complex or per binding partner. For the molecule B2, the binding result in series [3] is on record as “binds”. Moreover, the “stoichiometry N” value in series [4] was 6. B3: the binding result in series [3] was “binds”. For B4, in series [3], the binding result is “binds”. In addition, in series [4], the “stoichiometry N” value amounted to 6. For the molecule B5, the binding result in series [3] is “binds”.

As for B6, in series [3], the binding result is given as “binds”.
